Data: patent US20230416363A1 (KADMON, published 2023)
Residue numbers refer to the chain shown, from its start.

Key:
hPD-1-Fc [1] = biological target: T1, hPD-1-Fc (human, UniProt Q15116 25-167); experiment: ELISA, hPD-1-Fc coated
T1 construct: domain: IgV domain; also called human PD-1-Fc; not shown: human IgG1 Fc

hPD-1-his [2] = biological target: T2, hPD-1-his (human, UniProt Q15116 25-167); experiment: ELISA, PD-1-his on anti-his
T2 construct: domain: IgV domain; monomer in solution; biotin-labelled where captured by streptavidin; also called biotin-hPD-1-his

hPD-1-his [3] = biological target: T2, hPD-1-his; experiment: ELISA, PD-1-his on streptavidin
hPD-1-Fc [4] = biological target: T1, hPD-1-Fc; experiment: blocking ELISA, hPD-1 to hPD-L1; design: unit not given here
hPD-1-Fc [5] = biological target: T1, hPD-1-Fc; experiment: SPR Biacore T200, PD-1-Fc immobilised
hPD-1-his [6] = biological target: T2, hPD-1-his; experiment: SPR Biacore T200, PD-1-his immobilised

T1 sequence (Q15116 25-167 limits assumed): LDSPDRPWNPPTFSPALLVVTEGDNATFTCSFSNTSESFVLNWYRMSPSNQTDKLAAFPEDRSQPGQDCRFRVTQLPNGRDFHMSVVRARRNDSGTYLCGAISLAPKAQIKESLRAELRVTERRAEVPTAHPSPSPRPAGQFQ
T2 sequence (Q15116 other isoform, or with tags, fused parts or gaps limits assumed): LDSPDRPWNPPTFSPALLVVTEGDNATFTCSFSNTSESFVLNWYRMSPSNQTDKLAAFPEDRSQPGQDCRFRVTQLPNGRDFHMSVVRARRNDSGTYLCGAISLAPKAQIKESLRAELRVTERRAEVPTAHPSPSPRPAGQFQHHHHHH

B1: 32A11 (antibody, V domains shown)
VH: EVQLLESGGGLVQPGGSLRLSCAASGFTFSSYWMSWVRQAPGKGLEWVSAISGSGGSTYYADSVKGRFTISRDNSKNTLYLQMNSLRAEDTAVYYCASSPLQWVDVWGQGTTVTVSS
VL: DIQMTQSPSSLSASVGDRVTITCRASESISIWLAWYQQKPGKAPKLLIYDASNLETGVPSRFSGSGSGTNFTLTISSLQPEDFATYYCQQADSFPFTFGPGTKVDIK
OD at 10 nM (hPD-1-Fc [1]): 0.921 OD | OD at 10 nM (hPD-1-his [2]): 1.03 OD | OD at 10 nM (hPD-1-his [3]): 0.919 OD | Inhibition at 50 nM (hPD-1-Fc [4]): 91.1

B2: 32D11 (antibody, V domains shown)
VH: B1 VH
VL: B1 VL with E27Q, S30N, N70D, A91G, D92Y
OD at 10 nM (hPD-1-Fc [1]): 0.952 OD | OD at 10 nM (hPD-1-his [2]): 0.602 OD | OD at 10 nM (hPD-1-his [3]): 0.935 OD | Inhibition at 50 nM (hPD-1-Fc [4]): 91.9 | Kd (hPD-1-Fc [5]): 0.554 nM | Kd (hPD-1-his [6]): 1.44 nM

B3: 39G8 (antibody, V domains shown)
VH: B1 VH
VL: B1 VL with E27Q, S28G, I31P, N53K, N70D, D92Y, P100G, D105E
OD at 10 nM (hPD-1-Fc [1]): 1.06 OD | OD at 10 nM (hPD-1-his [2]): 0.484 OD | OD at 10 nM (hPD-1-his [3]): 0.981 OD | Inhibition at 50 nM (hPD-1-Fc [4]): 93.2 | Kd (hPD-1-Fc [5]): 0.794 nM | Kd (hPD-1-his [6]): 2.58 nM

B4: 38C11 (antibody, V domains shown)
VH: B1 VH
VL: B1 VL with E27Q, I31R, Y49S, N53T, L54V, E55Q, T56S, N70D, D92N
OD at 10 nM (hPD-1-Fc [1]): 1.02 OD | OD at 10 nM (hPD-1-his [2]): 0.404 OD | OD at 10 nM (hPD-1-his [3]): 1.05 OD | Inhibition at 50 nM (hPD-1-Fc [4]): 92.7

B5: 32D2 (antibody, V domains shown)
VH: B1 VH
VL: B1 VL with E27Q, S28G, I31R, D50E, N53T, E55Q, T56S, N70D, D92Y, P100Q
OD at 10 nM (hPD-1-Fc [1]): 0.922 OD | OD at 10 nM (hPD-1-his [2]): 0.591 OD | OD at 10 nM (hPD-1-his [3]): 0.932 OD | Inhibition at 50 nM (hPD-1-Fc [4]): 91.7

B6: 39B11 (antibody, V domains shown)
VH: B1 VH
VL: B1 VL with E27Q, I31S, D50E, N53R, E55Q, T56S, N70D, D92N
OD at 10 nM (hPD-1-Fc [1]): 1.08 OD | OD at 10 nM (hPD-1-his [2]): 0.482 OD | OD at 10 nM (hPD-1-his [3]): 0.99 OD | Inhibition at 50 nM (hPD-1-Fc [4]): 93.3

B7: 38A10 (antibody, V domains shown)
VH: B1 VH
VL: B1 VL with E27Q, I31T, N53R, E55Q, T56N, N70D, A91G
OD at 10 nM (hPD-1-Fc [1]): 1.06 OD | OD at 10 nM (hPD-1-his [2]): 0.552 OD | OD at 10 nM (hPD-1-his [3]): 1 OD | Inhibition at 50 nM (hPD-1-Fc [4]): 92.8 | Kd (hPD-1-Fc [5]): 0.834 nM | Kd (hPD-1-his [6]): 4.82 nM
